Source: article PMC12611769, “Phase-separated NDF−FACT condensates facilitate transcription elongation on chromatin” (Nature Cell Biology, 2025)

What was measured:
Conditions in all cases: both partners purified
Flag-tagged hSpt16 = molecular target: T1, Flag-tagged hSpt16 (human, UniProt Q9Y5B9 1-1047); assay: pull-down; Ni-NTA beads, His6-tagged NDF (WT, truncates or mutants; 40 pmol) as bait with 20 pmol Flag-tagged hSpt16 or FACT in 300 µl of 10 mM Tris-HCl pH 7.5, 200 mM NaCl, 0.2% Nonidet P-40, 10% glycerol, 4 °C 3 h; SDS-PAGE, silver staining
T1 construct: human SUPT16H (hSpt16); methods print 'Flag-hSpt16', legends 'Spt16-FLAG'; also called Spt16-FLAG; Flag-hSpt16; source: Sf9 cells (pFastBac-FLAG-hSpt16), purified; also co-expressed with untagged hSSRP1 in Sf9, in cell extract

[1] = molecular target: T2, Flag-tagged FACT complex (Flag-hSpt16 + untagged hSSRP1) (human, UniProt Q9Y5B9 1-1047; Q08945 1-709); assay: co-sedimentation; sedimentation assay of condensates: NDF and FACT mixed in a 100 mM NaCl buffer without PEG, 10 min at 22 °C, 17,200g 10 min; supernatant and pellet on SDS-PAGE, Coomassie
T2 construct: human SUPT16H (hSpt16); human SSRP1, untagged; complex formed beforehand by co-expression; also called FACT-FLAG; hFACT; source: Sf9 cells, co-expressed, purified (anti-Flag M2 agarose, 3x Flag peptide elution)

[2] = molecular target: T3, His6-hSpt16 (recombinant his-tagged Spt16 subunit of FACT) (human, UniProt Q9Y5B9 1-1047); assay: pull-down; Flag M2 beads, NDF-Flag as bait; 10 mM Tris-HCl pH 7.5, 200 mM NaCl, 0.2% Nonidet P-40, 10% glycerol, 4 °C 3 h; SDS-PAGE, silver staining
T3 construct: human SUPT16H (hSpt16); The His6 tag was inserted into pFastBac-FLAG-hSpt16; also called his-FACT subunit; source: Sf9 cells (Bac-to-Bac), expressed separately, purified similar to his-hNDF

[3] = molecular target: T4, FACT complex used as prey in the FLAG pull-down with NDF-Flag (his-FACT) (human, UniProt Q9Y5B9 1-1047; Q08945 1-709); assay: as above
T4 construct: human SUPT16H (hSpt16); human SSRP1; the his-tagged subunits are surmised because the bait was held on Flag M2 beads; source: Sf9 cells (Bac-to-Bac), his-FACT subunits expressed separately, purified similar to his-hNDF
T4 sequence (Q9Y5B9 whole entry, chain 1 of 2): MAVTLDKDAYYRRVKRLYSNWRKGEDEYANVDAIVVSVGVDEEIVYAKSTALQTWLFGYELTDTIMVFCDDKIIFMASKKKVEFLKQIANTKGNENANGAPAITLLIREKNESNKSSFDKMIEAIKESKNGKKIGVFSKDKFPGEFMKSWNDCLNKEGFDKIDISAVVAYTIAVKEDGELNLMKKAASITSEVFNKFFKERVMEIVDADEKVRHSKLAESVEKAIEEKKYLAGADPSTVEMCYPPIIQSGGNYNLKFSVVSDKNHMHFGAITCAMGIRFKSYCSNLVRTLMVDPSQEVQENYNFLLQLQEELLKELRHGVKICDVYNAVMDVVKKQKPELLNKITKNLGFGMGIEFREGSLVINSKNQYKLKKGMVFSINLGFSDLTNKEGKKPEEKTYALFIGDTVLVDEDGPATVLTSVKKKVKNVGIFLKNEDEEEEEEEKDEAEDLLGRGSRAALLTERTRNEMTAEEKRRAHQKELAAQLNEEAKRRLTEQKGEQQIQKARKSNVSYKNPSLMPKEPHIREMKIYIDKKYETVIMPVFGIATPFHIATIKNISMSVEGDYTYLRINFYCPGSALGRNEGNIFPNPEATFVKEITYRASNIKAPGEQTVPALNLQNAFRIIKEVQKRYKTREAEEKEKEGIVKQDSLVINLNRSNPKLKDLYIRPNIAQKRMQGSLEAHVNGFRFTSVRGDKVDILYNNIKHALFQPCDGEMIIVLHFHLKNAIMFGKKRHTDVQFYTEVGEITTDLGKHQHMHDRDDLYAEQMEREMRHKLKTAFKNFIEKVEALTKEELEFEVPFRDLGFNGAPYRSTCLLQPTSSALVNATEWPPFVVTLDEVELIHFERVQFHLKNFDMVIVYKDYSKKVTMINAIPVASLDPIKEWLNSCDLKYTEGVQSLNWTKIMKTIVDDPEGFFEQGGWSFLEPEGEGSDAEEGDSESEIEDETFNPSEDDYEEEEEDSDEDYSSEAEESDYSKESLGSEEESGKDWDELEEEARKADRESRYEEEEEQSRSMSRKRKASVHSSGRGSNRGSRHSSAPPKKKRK
T4 sequence (Q08945 whole entry, chain 2 of 2): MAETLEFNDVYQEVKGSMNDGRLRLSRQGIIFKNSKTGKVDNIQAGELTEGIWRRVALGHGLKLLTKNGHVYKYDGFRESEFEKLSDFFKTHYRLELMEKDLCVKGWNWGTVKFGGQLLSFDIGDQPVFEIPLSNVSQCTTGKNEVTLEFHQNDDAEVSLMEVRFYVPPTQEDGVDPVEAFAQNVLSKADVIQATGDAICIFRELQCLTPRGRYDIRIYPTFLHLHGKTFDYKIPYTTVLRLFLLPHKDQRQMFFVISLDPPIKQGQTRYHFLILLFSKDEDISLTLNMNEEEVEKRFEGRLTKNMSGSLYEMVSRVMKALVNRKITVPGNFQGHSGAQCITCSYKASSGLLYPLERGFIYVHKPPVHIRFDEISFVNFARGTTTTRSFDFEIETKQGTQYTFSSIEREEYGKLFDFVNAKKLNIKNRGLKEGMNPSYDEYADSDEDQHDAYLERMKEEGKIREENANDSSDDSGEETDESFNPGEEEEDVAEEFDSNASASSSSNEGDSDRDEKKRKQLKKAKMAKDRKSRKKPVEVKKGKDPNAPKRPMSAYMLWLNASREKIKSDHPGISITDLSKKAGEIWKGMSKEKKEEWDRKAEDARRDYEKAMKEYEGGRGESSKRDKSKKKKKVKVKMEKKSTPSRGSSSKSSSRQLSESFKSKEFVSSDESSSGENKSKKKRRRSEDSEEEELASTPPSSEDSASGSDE

T1 sequence (Q9Y5B9 whole entry, the tested form may be a part): as the sequence (Q9Y5B9 whole entry, chain 1 of 2) above
T3 sequence (Q9Y5B9 whole entry): as the sequence (Q9Y5B9 whole entry, chain 1 of 2) above
T2 sequence (Q9Y5B9 whole entry, chain 1 of 2): as above
T2 sequence (Q08945 whole entry, chain 2 of 2): as the sequence (Q08945 whole entry, chain 2 of 2) above

| binding result (Flag-tagged hSpt16) | binding result [1] | binding result [2] | binding result [3] | Binder |
| --- | --- | --- | --- | --- |
| binds | – | – | – | NDF_K161A, full-length, His6-tagged (natural protein, human, UniProt Q49A26 1-553, looked up, human NDF (Glyr1), full-length, K161A; source: bacterial expression (pET21b), purified) MAAVSLRLGDLVWGKLGRYPPWPGKIVNPPKDLKKPRGKKCFFVKFFGTEDHAWIKVEQLKPYHAHKEEMIKINKGKRFQQAVDAVEEFLRRAKGKDQTSSHNSSDDKNRRNSSEERSRPNSGDEKRKLSLSEGKVKKNMGEGKKRVSSGSSERGSKSPLARAQEQSPRKRGRPPKDEKDLTIPESSTVKGMMAGPMAAFKWQPTASEPVKDADPHFHHFLLSQTEKPAVCYQAITKKLKICEEETGSTSIQAADSTAVNGSITPTDKKIGFLGLGLMGSGIVSNLLKMGHTVTVWNRTAEKCDLFIQEGARLGRTPAEVVSTCDITFACVSDPKAAKDLVLGPSGVLQGIRPGKCYVDMSTVDADTVTELAQVIVSRGGRFLEAPVSGNQQLSNDGMLVILAAGDRGLYEDCSSCFQAMGKTSFFLGEVGNAAKMMLIVNMVQGSFMATIAEGLTLAQVTGQSQQTLLDILNQGQLASIFLDQKCQNILQGNFKPDFYLKYIQKDLRLAIALGDAVNHPTPMAAAANEVYKRAKALDQSDNDMSAVYRAYIH |
| binds | binds | – | – | His6-hNDF, full-length wild type (natural protein, human, UniProt Q49A26 1-553, looked up, human nucleosome destabilizing factor (NDF; Glyr1), full-length; vector name has His6 before hNDF, a legend prints 'NDF-his'; also called NDF-his; His6-tagged NDF-WT; source: bacterial expression (pET21b-His6-hNDF), purified as previously described) MAAVSLRLGDLVWGKLGRYPPWPGKIVNPPKDLKKPRGKKCFFVKFFGTEDHAWIKVEQLKPYHAHKEEMIKINKGKRFQQAVDAVEEFLRRAKGKDQTSSHNSSDDKNRRNSSEERSRPNSGDEKRKLSLSEGKVKKNMGEGKKRVSSGSSERGSKSPLKRAQEQSPRKRGRPPKDEKDLTIPESSTVKGMMAGPMAAFKWQPTASEPVKDADPHFHHFLLSQTEKPAVCYQAITKKLKICEEETGSTSIQAADSTAVNGSITPTDKKIGFLGLGLMGSGIVSNLLKMGHTVTVWNRTAEKCDLFIQEGARLGRTPAEVVSTCDITFACVSDPKAAKDLVLGPSGVLQGIRPGKCYVDMSTVDADTVTELAQVIVSRGGRFLEAPVSGNQQLSNDGMLVILAAGDRGLYEDCSSCFQAMGKTSFFLGEVGNAAKMMLIVNMVQGSFMATIAEGLTLAQVTGQSQQTLLDILNQGQLASIFLDQKCQNILQGNFKPDFYLKYIQKDLRLAIALGDAVNHPTPMAAAANEVYKRAKALDQSDNDMSAVYRAYIH |
| binds | – | – | – | NDF_R162A, full-length, His6-tagged (natural protein, human, UniProt Q49A26 1-553, looked up, human NDF (Glyr1), full-length, R162A; source: bacterial expression (pET21b), purified) MAAVSLRLGDLVWGKLGRYPPWPGKIVNPPKDLKKPRGKKCFFVKFFGTEDHAWIKVEQLKPYHAHKEEMIKINKGKRFQQAVDAVEEFLRRAKGKDQTSSHNSSDDKNRRNSSEERSRPNSGDEKRKLSLSEGKVKKNMGEGKKRVSSGSSERGSKSPLKAAQEQSPRKRGRPPKDEKDLTIPESSTVKGMMAGPMAAFKWQPTASEPVKDADPHFHHFLLSQTEKPAVCYQAITKKLKICEEETGSTSIQAADSTAVNGSITPTDKKIGFLGLGLMGSGIVSNLLKMGHTVTVWNRTAEKCDLFIQEGARLGRTPAEVVSTCDITFACVSDPKAAKDLVLGPSGVLQGIRPGKCYVDMSTVDADTVTELAQVIVSRGGRFLEAPVSGNQQLSNDGMLVILAAGDRGLYEDCSSCFQAMGKTSFFLGEVGNAAKMMLIVNMVQGSFMATIAEGLTLAQVTGQSQQTLLDILNQGQLASIFLDQKCQNILQGNFKPDFYLKYIQKDLRLAIALGDAVNHPTPMAAAANEVYKRAKALDQSDNDMSAVYRAYIH |
| – | – | binds | binds | hNDF-FLAG (recombinant NDF-Flag) (natural protein, human, UniProt Q49A26 1-553, looked up, human nucleosome destabilizing factor (NDF; Glyr1); source: bacterial expression (pET21b-hNDF-FLAG), purified as previously described) MAAVSLRLGDLVWGKLGRYPPWPGKIVNPPKDLKKPRGKKCFFVKFFGTEDHAWIKVEQLKPYHAHKEEMIKINKGKRFQQAVDAVEEFLRRAKGKDQTSSHNSSDDKNRRNSSEERSRPNSGDEKRKLSLSEGKVKKNMGEGKKRVSSGSSERGSKSPLKRAQEQSPRKRGRPPKDEKDLTIPESSTVKGMMAGPMAAFKWQPTASEPVKDADPHFHHFLLSQTEKPAVCYQAITKKLKICEEETGSTSIQAADSTAVNGSITPTDKKIGFLGLGLMGSGIVSNLLKMGHTVTVWNRTAEKCDLFIQEGARLGRTPAEVVSTCDITFACVSDPKAAKDLVLGPSGVLQGIRPGKCYVDMSTVDADTVTELAQVIVSRGGRFLEAPVSGNQQLSNDGMLVILAAGDRGLYEDCSSCFQAMGKTSFFLGEVGNAAKMMLIVNMVQGSFMATIAEGLTLAQVTGQSQQTLLDILNQGQLASIFLDQKCQNILQGNFKPDFYLKYIQKDLRLAIALGDAVNHPTPMAAAANEVYKRAKALDQSDNDMSAVYRAYIH |
